Source: paper PMC7509637 (Advanced Science, 2020)
Entries after “also recorded” stand apart in the source; their conditions may differ.

B1: FapC monomers: monomeric FapC, purified via a PD10 desalting column (protein)
chain: GNEGGWHPPKPNPQSNNKGGATALVVDTQQNYNNKVSNFGTLNNASVSGSIKDASGNVGVNVAAGDNNQQANAAALASADASFVFGTATASTSVLQSGYGNTLNNYSNPNTASLSNSANNVSGNLGVNVAAGNFNQQKNDLAAAVSNGQYSTAGSAASQTSTGNTTVNSANYAYGGTYVSLKLNADGSYKGTSDQIGDVYLDTWEGQTHPGGSNTGHIDVDSQAQGAKDLNHDGGAFAFKEKGDVDLKGTVSGFIPAIVGFKTPVTNNASLSNSLQNVSGNVGVNIAAGGGNQQSNSLSIAAGCSSCPAGGESLGF
B2: FapC fibrils: FapC incubated in deionized water at 37 °C for 1 week, nonsonicated fibrils (protein)
chain: B1 chain
B3: FapCS derived from younger FapC fibrils: seeds from FapC fibrils fibrillated for 4 d at 37 °C and 25 °C (protein, UniProt Q9I2F0 25-340, looked up)
Functional amyloid subunit …: B1 chain
modifications: sonicated fibril seeds
notes: seeds from FapC fibrils fibrillated for 4 d at 37 °C and 25 °C

What was measured:
Aβ monomers = assay: Isothermal titration calorimetry (ITC); format: binding; settings: Aβ 200 × 10^−6 M into 20 × 10^−6 M seeds, 0.1% NH4OH, 25 °C
Experimental: ITC (Malvern MicroCal iTC200) was used to explore the interaction between Aβ monomers and oligomers (Aβo) with FapCS. Sample solutions were degassed at 25 °C while stirring (100 rpm). Aβ (200 × 10^−6 M, 40 µL) was filled into the syringe while FapCS or bLgS (20 × 10^−6 M, 200 µL) were filled in the cell (coin shaped). 0.1% NH4OH buffer solution was used for both solutions. Aβ was injected into the cell at an injection volume of 2 µL at the duration of 4 s and with a spacing of 180 s. First injection was 0.2 µL for 0.4 s duration and a total of 16 injections were programed. The heat exchange was recorded with a Microcal analysis (origin v7) software. The heat of dilution (Aβ against buffer) was subtracted from the interaction heat of samples. The acquired curves were fitted to a sequential binding model and thermodynamic parameters of binding energy (ΔH), free energy (ΔG), and entropic factor (TΔS) were calculated. Aβo for the ITC experiments was prepared by incubating Aβ aqueous solution (200 × 10^−6 M) at 4 °C for 48 h.^[ ^65 ^]

Aβ [1] = target: T1, Aβ (Homo sapiens, UniProt P05067); assay: Circular dichroism spectroscopy, secondary structure; settings: incubation with Aβ, Figure S7
T1 construct: purchased Anaspec Inc
Experimental: Solutions of 200 µL, at similar molar ratios as for ThT assay, were prepared and incubated at 37 °C. CD spectra for different samples at 0, 12 and 48 h were measured with a CD spectrophotometer (Jasco) from 190 to 240 nm (1 nm step size). The percentage secondary structure was calculated by the CD data via Dichroweb analysis with parameters of Contin/reference set 4.^[ ^95 ^]

Aβ [2] = target: T1, Aβ; assay: TEM imaging of Aβ with FapC species or bLgS; settings: 12 h incubation, uranyl acetate negative stain
Experimental: (§1) Aβ incubated in the presence or absence of FapCS, FapC monomers, FapC fibrils or bLgS were subjected to TEM imaging. After incubation for 12 h, a drop of sample was applied on a glow‐discharged carbon‐coated copper grid. After 1 min, the sample was blotted and then negatively stained with uranyl acetate (1%) for 30 s. The dried grid was then imaged with a Technei F20 TEM at 200 kV. For AFM, a drop of sample was placed on freshly cleaved mica surface and rinsed with water after 2 min and dried with pressurized air. The sample was scanned with an AFM (Nanoscope VIII Multimode Scanning Force Microscopes, Bruker), covered with an acoustic hood to minimize the vibrational noise. Images were acquired under the tapping mode with a silicon nitride cantilever (Bruker). AFM images were processed with Nanoscope Analysis 1.5 software to flatten the background and to calculate the statistical parameters.

Aβ [3] = target: T1, Aβ; assay: ThT kinetic assay of Aβ fibrillization (seeding with FapC species, Aβ seeds, bLgS); format: biochemical; settings: 37 °C, n = 3; for effect on Aβ fibrillization (ThT): Aβ 50 × 10^−6 M, seeds/FapC species 5 × 10^−6 M, ThT fluorescence ex 445/em 485 nm; for effect on rate constant k of Aβ (in words): 5 × 10^−6 M with Aβ 50 × 10^−6 M, FapCS *, p < 0.05, FapC monomer and fibrils **, p < 0.005
Experimental: FapC seeds (FapCS) were produced by FapC fibrils of three different ages. The FapC monomers were produced as described^[ ^45 ^] and stored in 6 M GdmCl. Prior to fibrillization, the FapC monomers were purified via a PD10 desalting column. FapC monomers (1 mg mL^−1 or 40 × 10^−6 M) were incubated in deionized water at 37 °C for 1 week to produce mature fibrils and at 37 °C or 25 °C for 4 d to obtain young fibrils. Deionized water was used to make FapC fibrils as it is convenient to transfer the samples to other experimental conditions, i.e., buffered Aβ solution or PBS for in vivo microinjection. However, bacterial amyloids like FapC and curli can make amyloids over a range of conditions.^[ ^93 ^] FapCS were produced by sonicating an aqueous solution of FapC fibrils (10 × 10^−6 M) at 20 power of a probe sonicator (Sonics Vibracell: 750 watts and 20 kHz) for 2 min with 1 s on/off cycle. For in vitro cross‐seeding experiments, 50 × 10^−6 M of Aβ monomers were incubated with 5 × 10^−6 M of FapCS (10:1 molar ratio, Aβ:FapCS) at 37 °C. bLg amyloids were synthesized by heating of bLg monomers (80 °C, pH 2) of 10 mg mL^−1 solution for 24 h. Prior to the production of bLgS, the bLg amyloid solution was brought to pH 7 and then sonicated, similar to FapC, to generate bLgS.
Aβ (Anaspec Inc., purity ≥ 95%) was dissolved in 100 µL of hexafluoro‐2‐propanol (HFIP) and incubated at room temperature for 3 h. The acquired aliquots of this solution were freeze dried and stored at −20 °C for further experimentation. […] For the ThT kinetic assay, a 100 µL of aqueous solution containing Aβ (50 × 10^−6 M), FapCS or bLgS (5 × 10^−6 M) and ThT dye (100 × 10^−6 M) was incubated (37 °C) in a 96‐well plate. The ThT fluorescence (excitation: 445 nm/ emission: 485 nm) was recorded at specified time intervals for 50 h. Kinetic parameters (rate constant k, half‐life t 1/2 and lag‐time) were calculated as described.^[ ^94 ^] Briefly, kinetic curves were fitted to a sigmoidal curve =y0+ymax−y0/1+e^−(t−t1/2)k , where y 0 and y max are initial and final ThT fluorescence values, allowing us to calculate lag time = t 1/2 − 2/k.

Aβ [4] = target: T1, Aβ; assay: Static light scattering (SLS) of Aβ fibrillar growth; format: biochemical; settings: ratio as for ThT assay, Malvern Zetasizer Nano, n = 3
Experimental: Increases in the size of Aβ in the presence and absence of FapCS or bLgS were monitored by SLS. Solution of Aβ with FapCS or bLgS, at a similar ratio as for the ThT assay, was prepared and incubated. SLS measurements were performed at different time intervals using a Malvern Zetasizer Nano. The parameters were fixed at 7 for attenuator and 4.20 mm for cell position. Quartz cells with low volume capacity (100 µL) were used. The light scattering intensities (kilo counts per sec) and the refractive indices of the samples, buffer alone and toluene were measured.

Aβ fibrils = assay: AFM of fibrils, FiberApp statistical analysis
Experimental: as §1

Molecule | binding to Aβ by ITC (in words) (Aβ monomers) | effect on secondary structure (in words) (Aβ [1]) | TEM observation (Aβ [2]) | effect on Aβ fibrillization (ThT) (Aβ [3]) | Aβ fibrillar growth by SLS (Aβ [4]) | effect on rate constant k of Aβ (in words) (Aβ [3]) | pitch size of fibrils (Aβ fibrils; FiberApp) | fibril diameter (Aβ fibrils; from fibril heights, mean ± SD)
bLgS: seeds from whey protein β‐lactoglobulin amyloids by sonication [reference compound] | Insubstantial binding | did not induce β‐sheet formation in Aβ; also recorded: α‐helical and random‐coil structures of bLgS were slightly increased | did not render any acceleration of Aβ fibrillization | did not render any acceleration of Aβ fibrillization | did not render any acceleration of Aβ fibrillization | – | – | –
B1 | – | – | appeared to aggregate on top of Aβ fibrils | lacked such acceleratory effect | – | significantly suppressed | – | –
B2 | – | – | did not coat FapC fibrils | lacked such acceleratory effect; also recorded: significantly suppressed | – | significantly suppressed | 26 nm | 3.6 ± 1.0 nm
B3 | – | – | – | accelerated Aβ fibrillization (Figure S3, Supporting Information), but less than the seeds derived from mature FapC fibrils | – | – | – | –
